Test results: publication PMC2330189 (Acta Crystallographica Section F: Structural Biology and …, 2007)

Biological target: the molecule itself
Test: SEC

B1: 1,3-propanediol dehydrogenase from Klebsiella pneumoniae (enzyme, UniProt Q59477 1-387, looked up)
chain: MSYRMFDYLVPNVNFFGPNAISVVGERCQLLGGKKALLVTDKGLRAIKDGAVDKTLHYLREAGIEVAIFDGVEPNPKDTNVRDGLAVFRREQCDIIVTVGGGSPHDCGKGIGIAATHEGDLYQYAGIETLTNPLPPIVAVNTTAGTASEVTRHCVLTNTETKVKFVIVSWRNLPSVSINDPLLMIGKPAALTAATGMDALTHAVEAYISKDANPVTDAAAMQAIRLIARNLRQAVALGSNLQARENMAYASLLAGMAFNNANLGYVHAMAHQLGGLYDMPHGVANAVLLPHVARYNLIANPEKFADIAELMGENITGLSTLDAAEKAIAAITRLSMDIGIPQHLRDLGVKEADFPYMAEMALKDGNAFSNPRKGNEQEIAAIFRQAF
stoichiometry N: 10
